According to publication PMC8295233 (Immunobiology, 2021):
No end group written: not given here.

How the values were obtained:
ERAP1_R = ERAP1_R (Homo sapiens, UniProt Q9NZ08); experiment: SPR binding analysis of peptide analytes to immobilized ERAP1_R; conditions: pH 6.2, read-out: ka
[1] = molecular target: ERAP1 regulatory domain with a C-terminal His6-tag (human, UniProt Q9NZ08 529-941); experiment: SPR
[2] = molecular target: ERAP1 regulatory domain, the domain part of the SPF and LPF fused constructs (human, UniProt Q9NZ08 529-941); experiment: crystal structure

kon (ERAP1_R) [M⁻¹ s⁻¹]	Kd [1] [µM]	koff [1] [s⁻¹]	kon [1] [M⁻¹ s⁻¹]	binding result [2]	Molecule
734	–	–	–	–	LVAFKARKF [Free Peptide (LVAFKARKF), LVAFKARKF]
–	32	0.112	3500	–	SPF single-chain fused construct (ERAP1_R with FKARKF fused to its C-terminal end), His6-tag removed (domain or fragment, human) GFPLITITVRGRNVHMKQEHYMKGSDGAPDTGYLWHVPLTFITSKSDMVHRFLLKTKTDVLILPEEVEWIKFNVGMNGYYIVHYEDDGWDSLTGLLKGTHTAVSSNDRASLINNAFQLVSIGKLSIEKALDLSLYLKHETEIMPVFQGLNELIPMYKLMEKRDMNEVETQFKAFLIRLLRDLIDKQTWTDEGSVSERMLRSQLLLLACVHNYQPCVQRAEGYFRKWKESNGNLSLPVDVTLAVFAVGAQSTEGWDFLYSKYQFSLSSTEKSQIEFALCRTQNKEKLQWLLDESFKGDKIKTQEFPQILTLIGRNPVGYPLAWQFLRKNWNKLVQKFELGSSSIAHMVMGTTNQFSTRTRLEEVKGFFSSLKENGSQLRCVQQTIETIEENIGWMDKNFDKIRVWLQSEKLERMFKARKF
–	–	–	–	binds	FKARKF [SPF peptide (short peptide with Phe anchor), the peptide part of the SPF fused construct]
–	–	–	–	binds	AAAAFKARKF [LPF peptide (long peptide with Phe anchor), the peptide part of the LPF fused construct]
–	21.3	0.091	4270	–	LPF single-chain fused construct (ERAP1_R with AAAAFKARKF fused to its C-terminal end), His6-tag removed (domain or fragment, human) GFPLITITVRGRNVHMKQEHYMKGSDGAPDTGYLWHVPLTFITSKSDMVHRFLLKTKTDVLILPEEVEWIKFNVGMNGYYIVHYEDDGWDSLTGLLKGTHTAVSSNDRASLINNAFQLVSIGKLSIEKALDLSLYLKHETEIMPVFQGLNELIPMYKLMEKRDMNEVETQFKAFLIRLLRDLIDKQTWTDEGSVSERMLRSQLLLLACVHNYQPCVQRAEGYFRKWKESNGNLSLPVDVTLAVFAVGAQSTEGWDFLYSKYQFSLSSTEKSQIEFALCRTQNKEKLQWLLDESFKGDKIKTQEFPQILTLIGRNPVGYPLAWQFLRKNWNKLVQKFELGSSSIAHMVMGTTNQFSTRTRLEEVKGFFSSLKENGSQLRCVQQTIETIEENIGWMDKNFDKIRVWLQSEKLERMAAAAFKARKF
–	19.8	0.0145	–	–	LVAFKARKF [free peptide LVAFKARKF (optimized ERAP1 substrate)]
